Reference: paper PMC10393190 (Genes & Development, 2022)

B1: Rec114 C-terminal (dimerization) domain, residues 375–428 (domain or fragment)
chain: EASPSEGLTIRVKNVNRNASRKISKRLIKEKLKDEEFMKWVNKVETVLNKMFEK

Legend:
[1] = biological target: HisSUMO-ASY2 coiled-coil domain (residues 55–275) (Sordaria macrospora) (Sordaria macrospora); experiment: SEC-MALS
[2] = biological target: HisSUMO-PAIR1 coiled-coil domain (residues 140–310) (Z. mays) (Z. mays); experiment: SEC-MALS
SEC-MALS = biological target: the molecule itself; experiment: SEC-MALS
[3] = biological target: B1; experiment: NMR
NMR = biological target: the molecule itself; experiment: NMR

Molecule	stoichiometry N (SEC-MALS)	further results
HisSUMO-ASY2 coiled-coil domain (residues 55–275) (Sordaria macrospora) (domain or fragment)		stoichiometry N [1]: 4
HisSUMO-PAIR1 coiled-coil domain (residues 140–310) (Z. mays) (domain or fragment)		stoichiometry N [2]: 4
Mer2 (residues 161–224) (domain or fragment) TRHVTNKQHETEKSMRCTQEMLFNVGSQLEDVHKVLLSLSKDMHSLQTRQTALEMAFREKADHA	3	
HisSUMO-IHO1 coiled-coil domain (residues 109–267) (M. musculus) (domain or fragment) GKSKGLSKQFEEKKRRATDQSDSETLHSFVSHFPEVINKLQTSVEKTEENLSSRSQSILDSVETIAKTFQETARVQHDLMVESVRDKGSMEQAILEIQRTCAARQAEFMEMKSTLKNLEVLVVEQTKNLQQFCDNLSQLIVPGILEELKKFTSVPQVAG	4	
MSRGKLEDMEQKETSEVDWIICFALIQSRNPTLWKRALSRKKG (domain or fragment) [Mei4 N-terminal domain, residues 1–43]		binding result [3]: binds
HisSUMO-tagged Mer2 coiled-coil domain (residues 41–224) (domain or fragment) KVANAGALEESDKQILEWAGKLELESMELRENSDKLIKVLNENSKTLCKSLNKFNQLLEQDAATNGNVKTLIKDLASQIENQLDKVSTAMLSKGDEKKTKSDSSYRQVLVEEISRYNSKITRHVTNKQHETEKSMRCTQEMLFNVGSQLEDVHKVLLSLSKDMHSLQTRQTALEMAFREKADHA	4	
HisSUMO-PRD3 coiled-coil domain (residues 120–270) (A. thaliana) (domain or fragment) IGESKSQISEELEQRFGMMETSLSRFGMMLDSIQSDIMQANRGTKEVFLETERIQQKLTLQDTSLQQLRKEQADSKASLDGGVKFILEEFSKDPNQEKLQKILQMLTTIPEQVETALQKIQREICHTFTREIQVLASLRTPEPRVRVPTAP	4	
HisSUMO-Rec15 coiled-coil domain (residues 1–160) (S. pombe) (domain or fragment) MSYSVSAAQLWSRKLAMQAEDMQQHQKSQSNQIASCLAEMNTKQEVVNQTIGQLGRSISEVQQQNSQLVLQSLNQINMSMQQVALGIQDYASRINKLEQTMSDMNLKFEALQKEQNSNTKTLADCTSQMTIITKKLDAELKKRYMTTKQTRTVQNQTMPR	4	
Mer2 N-terminal half of the coiled coil (residues 41–136) (domain or fragment) KVANAGALEESDKQILEWAGKLELESMELRENSDKLIKVLNENSKTLCKSLNKFNQLLEQDAATNGNVKTLIKDLASQIENQLDKVSTAMLSKGDE	2	
B1		binding result (NMR): binds
Mer2 C-terminal half of the coiled coil (residues 138–224) (domain or fragment) KTKSDSSYRQVLVEEISRYNSKITRHVTNKQHETEKSMRCTQEMLFNVGSQLEDVHKVLLSLSKDMHSLQTRQTALEMAFREKADHA	4	
